Measured values as given in patent publication US7799901B2, “Modulators of the function of FAS receptors and other proteins” (Yeda Research and Development Co. Ltd., priority 1995, dated 2010).

Key:
[1] = system: HeLa cells; assay: Cytotoxicity triggered by induced expression of MORT-1 in HeLa cells; format: cell-based, human; details: tetracycline-controlled transient expression; neutral red uptake or secreted placental alkaline phosphatase
Experimental: MORT-1, Fas-IC, p55-IC and luciferase cDNAs were inserted into a tetracycline-controlled expression vector and transfected to HtTA-1 cells (a HeLa cell line) (Gossen and Bujard, 1992) together with the secreted placental alkaline phosphatase cDNA, placed under control of SV40 promoter (the pSBC-2 vector, Dirks et al, 1993). Cell death was assessed 40 hours after transfection, either by the neutral-red uptake assay (Wallach, 1984) or, for assessing specifically the death in those cells that express the transfected cDNAs, by determining the amounts of placental alkaline phosphatase (Berger et al, 1988) secreted to the growth medium at the last 5 hours of incubation.
High expression of p55-IC results in triggering of a cytocidal effect (Boldin et al, 1995). The expression of Fas-IC in HeLa cells also has such an effect, though to a lower extent, which could be detected only with the use of a sensitive assay. The ligand independent triggering of cytocidal effects in cells transfected with MORT-1, as well as human p55-IC and FAS-IC, was thus analyzed. The effect of transient expression of MORT-1, human Fas-IC, human p55-IC, or luciferase that served as a control, on the viability of HeLa cells was assessed using a tetracycline-controlled expression vector. […]

[2] = target: T1, MORT-1 (Homo sapiens, UniProt Q13158, G32V); assay: Two-hybrid test (FIG. 1), binding to full-length MORT-1; parameters: expressed in transfected cells; host or cells: SFY526 yeast
T1 sequence (Q13158 with tags, fused parts or gaps G32V): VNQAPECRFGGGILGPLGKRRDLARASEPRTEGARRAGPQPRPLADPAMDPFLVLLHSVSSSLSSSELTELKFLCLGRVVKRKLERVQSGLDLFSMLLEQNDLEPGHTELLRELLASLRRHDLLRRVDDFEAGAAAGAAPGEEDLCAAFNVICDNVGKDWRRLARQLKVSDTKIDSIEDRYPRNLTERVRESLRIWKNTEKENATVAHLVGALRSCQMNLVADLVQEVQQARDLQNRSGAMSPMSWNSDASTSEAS
Text: To isolate proteins interacting with the intracellular domain of the FAS-R, the yeast two-hybrid system was used (Fields and Song, 1989). […] In this system, the genes for the candidate interacting proteins are cloned into separate expression vectors. In one expression vector, the sequence of the one candidate protein is cloned in phase with the sequence of the GAL4 DNA-binding domain to generate a hybrid protein with the GAL4 DNA-binding-domain, and in the other vector, the sequence of the second candidate protein is cloned in phase with the sequence of the GAL4 activation domain to generate a hybrid protein with the GAL4-activation domain. The two hybrid vectors are then co-transformed into a yeast host strain having a lacZ or HIS3 reporter gene under the control of upstream GAL4 binding sites. Only those transformed host cells (cotransformants) in which the two hybrid proteins are expressed and are capable of interacting with each other, will be capable of expressing the reporter gene. In the case of the lacZ reporter gene, host cells expressing this gene will become blue in color when X-gal is added to the cultures.
(b) retransforming the plasmid DNA and original FAS-IC hybrid plasmid and control plasmids described in (a) into yeast host cells of strain SFY526 and determining the LACZ^+ activity (effectivity of β-gal formation, i.e., blue color formation).
In FIG. 1, there is depicted the interaction of the proteins encoded by the Gal4 DNA binding domain and activation-domain constructs (pGBT9 and pGAD-GH) within transfected SFY526 yeasts as assessed by β-galactosidase expression filter assay. The DNA-binding-domain constructs included four constructs of the human Fas-IC, four constructs of the mouse Fas-IC including two full-length constructs having […] or Ile to Ala replacement mutations at position 225 (I225N and I225A, respectively), and three MORT-1 constructs, all of which are shown schematically on the left hand side of FIG. 1. […]

B1: MORT-1: Mediator of Receptor-induced Toxicity; protein binding the intracellular domain of FAS-R, SEQ ID NO:2 (protein)
chain: VNQAPECRFGGGILGPLGKRRDLARASEPRTEGARRAGPQPRPLADPAMDPFLVLLHSVSSSLSSSELTELKFLCLGRVVKRKLERVQSGLDLFSMLLEQNDLEPGHTELLRELLASLRRHDLLRRVDDFEAGAAAGAAPGEEDLCAAFNVICDNVGKDWRRLARQLKVSDTKIDSIEDRYPRNLTERVRESLRIWKNTEKENATVAHLVGALRSCQMNLVADLVQEVQQARDLQNRSGAMSPMSWNSDASTSEAS
cell death on expression in HeLa cells [1]: significant cell death
binding to full-length MORT-1 in two-hybrid test [2]: binds to itself
